The test concerns the target barnase (Bacillus amyloliquefaciens) (UniProt P00648). As to the kind of experiment: BLI.

The source of these data is paper doi:10.1101/2025.01.15.633204.

The term Kd denotes a measure of binding affinity in units of concentration. Higher therefore signals lower affinity.

A value given as a limit tells only on which side of the number the result lay.

UniProt P00648, sequence (P00648 48-157): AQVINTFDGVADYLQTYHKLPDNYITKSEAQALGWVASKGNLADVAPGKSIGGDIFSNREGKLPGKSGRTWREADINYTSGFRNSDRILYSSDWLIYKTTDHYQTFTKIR

“green fluorescent protein-Bs (GFP-Bs) fusion protein” showed a Kd of less than 0.1 nM.
